Assay results as given in article PMC5419085.

Target: full-length human LRP1 (low-density lipoprotein receptor-related protein 1) (human)
Experiment: ELISA; full-length human LRP1 (5 nM) coated on microtiter plates; biotinylated ADAMTS-5-2 (6 nM) with or without antibodies or RAP (each 100 nM); detected by AP-conjugated streptavidin; TNC buffer, 2 h, room temperature; bound amount as % of that without antibodies or RAP

“receptor-associated protein (RAP) (from UniProt P30533 35-357) (natural protein)” gave a percent inhibition of ADAMTS-5 binding to LRP1 at 100 nM of 75%.
